Data from article PMC9270183 (The Journal of Experimental Medicine, 2022).

Molecular target: T1, 417N/484K/501Y RBD mutant (SARS-CoV-2, Wuhan-Hu-1 RBD backbone …, 417N | 484K | 501Y)
T1 construct: also called RBD KEN
Assay: BLI
Details: both partners purified

Binder | Kd
V032 (antibody, V domains shown, IgG; donor BRA14; source: recombinant monoclonal IgG, produced and purified as previously described) VH: QVQLVESGGGVVQPGRSLRLSCAASGFTFSSYGMHWVRQAPGKGLEWVAVISYDGSNKYYADSVKGRFTISRDNSKNTLYLQMNSLRAEDTAVYYCAKVSGPYCSSTSCYTGYWDYWGQGTLVTVSS VL: not shown | 27.3 nM
V004 (antibody, V domains shown, IgG; donor BRA13; source: recombinant monoclonal IgG, produced and purified as previously described) VH: QVQLQESGPGLVKPSQTLSLTCTVSGGSISSGSYYWSWIRQPAGKGLEWIGRIYTSGSTNYNPSLKSRVTISVDTSKNQFSLKLSSVTAADTAVYYCARDTTDDYYVIWGQGTLVTVSS VL: DIQMTQSPSTLSASVGDRVTITCRASQSIRSWLAWYQQKPGKAPKLLIYDASSLESGVPSRFSGSGSGTEFTLTISSLQPDDFATYYCQQYNTHFRTFGQGTKVEIK | 2.92 nM
V051 (antibody, V domains shown, IgG; donor BRA15; source: recombinant monoclonal IgG, produced and purified as previously described) VH: QVQLVESGGGVVQPGRSLRLSCEASGFTFSTYAMHWVRQAPGKGLEWVAVISYDGNNKYYADSVKGRLTVSRDNSKNTLYLQMNSLRAEDTAEYYCARDDGGYCSSLSCPMDVWGQGTTVTVSS VL: SYELTQPPSVSVAPGKTARITCGGNSIGSKSVHWYQQRPGQAPVLVIYYDSDRPSGIPERFSGSNSGNTATLTISRVEAGDEADYYCQVWDSTLVFGGGTKLTVL | 7.05 nM
V053 (antibody, V domains shown, IgG; donor BRA15; source: recombinant monoclonal IgG, produced and purified as previously described) VH: QVQLVQSGAEVKKPGASVKVSCKASGYTFTSYYMHWVRQAPGQGLEWMGIINPSAGSTTYAQKFQGRVTMTSDTSTSTVYMELSSLKSEDTAVYYCARDFVLVPASYGMDVWGQGTTVTVSS VL: QSVLTQPASVSGSPGQSITISCTGTSSDVGSYNLVSWFQQHPGKAPKLMIYQVSKRPSGASNRFSGSKSGNTASLTISGLQAEDEADYYCCSYAGSSTVWVFGGGTKLTVL | 2.49 nM
V050 (antibody, V domains shown, IgG; donor BRA15; source: recombinant monoclonal IgG, produced and purified as previously described) VH: EVQLVESGGGLVKPGGSLRLSCAASGFSFSNAWMSWVRQAPGKGLEWVGRIKSKTDGGTTDYAAPVKGRFTISRDDSQNTLYLQMNSLKTEDTAVYYCITDRFRVHIRGYYGQGTLVTVSS VL: not shown | 66.7 nM
V045 (antibody, V domains shown, IgG; donor BRA15; source: recombinant monoclonal IgG, produced and purified as previously described) VH: QVQLVQSGAEVKKPGASVKVSCKASTYTFTSYYIHWVRQAPGQGLEWMGIINPSGGSTSYAQNFQGRVTMTRDTSTSTVYMELSSLRSEDTAVYYCARGVLIPAAGGDFDYWGQGTLVTVSS VL: QSALTQPRSVSGSPGQSVTISCTGTSSDVGGYKYVSWYQQHPGKAPKLMIYDVSKRPSGVPDRFSGSKSGNTASLTISGLQAEDEADYYCCSYAGSYSWVFGGGTKLTVL | 2.79 nM
V049 (antibody, V domains shown, IgG; donor BRA15; source: recombinant monoclonal IgG, produced and purified as previously described) VH: QVQLVESGGGVVQPGRSLRLSCAASRFPFSNYGMHWVRQAPGKGLEWVAVISFDGNNKYYGDSVKGRLTISRDNSKNTLYLQVKSLRPEDTAVYYCAKDISTGLSLALFRSPDGEGMDVWGQGTTVTVSS VL: not shown | 20.6 nM
V046 (antibody, V domains shown, IgG; donor BRA15; source: recombinant monoclonal IgG, produced and purified as previously described) VH: EVQLVESGGGLVQPGRSLRLSCAASGFTFEDYAMHWVRQAPGKGLEWVSGVSWNSGTIGYADSVKGRFIISRDNAKNSLYLQMNSLRAEDTALYYCANLGPTYYDFSRPTPMDVWGKGTTVTVSS VL: QSALTQPASVSGSPGQSITISCTGTSSDVGGYNYVSWYQQHPGKAPKLIIYDVSNRPSGVSNRFSGSKSGNTASLTISGLQAEDEADYYCSSYTSSSTWVFGGGTKLTVL | 2.85 nM
V003 (antibody, V domains shown, IgG; donor BRA13; source: recombinant monoclonal IgG, produced and purified as previously described) VH: EVQLVQSGAEVKKPGESLKISCLGSGYSFTSYWIGWVRQMPGKGLEWMGIIFPADSDTRYSPSFQGQVIISADKSISTAYLQWSSLKASDTAMYYCARLREFGDYYYYGMDVWGQGTTVTVSS VL: DIQLTQSPSSLSASVGDRVTITCRASQGISSYLAWYQQKPGKAPKLLIYAASTLQSGVPSRFSGSGSGTDFTLTISSLQPEDFATYYCQQLNSYPDFGQGTKLEIK | 139 nM
V048 (antibody, V domains shown, IgG; donor BRA15; source: recombinant monoclonal IgG, produced and purified as previously described) VH: QVQLVQSGAEVKKPGASVKVSCKASGYTFTSYVISWVRQAPGQGLEWMGWISAYNGNTNYAQKLQGRVTMTTDTSTSTAYMELRSLRSDDTAVYYCARDVAGITMIVEEVIDAFDIWGQGTMVTVSS VL: SYELTQPSSVSVSPGQTARITCSGDVLAKKYARWFQQKPGQAPVLVIYKDSERPSGIPERFSGSSSGTTVTLTISGAQVEDEADYYCFSAPDNNRVFGGGTKLTVL | 6.26 nM
V044 (antibody, V domains shown, IgG; donor BRA15; source: recombinant monoclonal IgG, produced and purified as previously described) VH: QVQLVQSGAEVKKPGASVKVSCKASGYTFTSYDINWVRQATGQGLEWMGWMNPNSGYAGYTQKFQGRITMTRNTSISTAYMELSSLRSEDTAVYFCARISSPTRLDPWGQGTLVTVSS VL: NFMLTQPHSVSESPGKTVTISCSRSRGSIASSFVQWYQQRPGSSPTTVIYDDNQRPSGVPDRFSGSIDSSSNSASLTISGLKTEDEADYYCQSYDSISWVFGGGTKLTVL | 3.66 nM
V037 (antibody, V domains shown, IgG; donor BRA15; source: recombinant monoclonal IgG, produced and purified as previously described) VH: EVQLVESGGGLVQPGGSLRLSCAASEVIVSSNYMSWVRQAPGKGLEWVSVLYSGGSTFYADSVKGRFTISRDNSKNTLYLQMNSLRAEDTAVYYCARDLGPMGAFDIWGQGTMVTVSS VL: not shown | 0.241 nM
V033 (antibody, V domains shown, IgG; donor BRA14; source: recombinant monoclonal IgG, produced and purified as previously described) VH: QVQLVQSGAEVKKPGASVKVSCKASGYTFTSYGISWVRQAPGQGLEWMGWISAYNGNTNYAQKLQGRVTMTTDTSTSTAYMELRSLRSDDTAVYYCARGRFCSSTSCYRAAPNYYYYYMDVWGKGTTVTVSS VL: NFMLTQPHSVSESPGKTVTISCTRSSGSIASNYVQWYQQRPGSAPTTVIYEDNQRPSGVPDRFSGSIDSSSNSASLTISGLKTEDEADYYCQSYDSSNPYWVFGGGTKLTVL | 10.7 nM
V039 (antibody, V domains shown, IgG; donor BRA15; source: recombinant monoclonal IgG, produced and purified as previously described) VH: QVQLQESGPGLVKPSQTLSLTCTVSGGSISSGSYYWSWIRQPAGKGLEWIGRIYTSGSTNYNPSLKSRVTISVDTSKNQFSLKLSSVTAADTAVYYCARADYSDYDNYYFDYWGQGTLVTVSS VL: NFMLTQPHSVSESPGKTVAISCTRSSGSIASNYVHWYQQRPGSSPTTVIYDDNQRPSGVPDRFSGSIDSSSNSASLTISGLKTEDEADYYCQSYDSSNHNWVFGGGTKLTVL | 0.542 nM
V038 (antibody, V domains shown, IgG; donor BRA15; source: recombinant monoclonal IgG, produced and purified as previously described) VH: QVQLVQSGAEVKKPGASVKVSCKASGYTFTGYYVHWVRQAPGQGLEWMGWINPNSGGTNFAQRFQGRVTMTRDTSISTAYMELSRLRSDDTAVYYCARGITVYGVAPDAFDIWGQGTMVTVSS VL: DIQMTQSPSSLSASVGDRVTITCQASQDISNYLNWYQQKPGKAPKVLIYDASNLEPGVPSRFSGSGSGTDFTFTISSLQPEDIATYYCQQYDNLITFGQGTRLEIK | 2.37 nM
V043 (antibody, V domains shown, IgG; donor BRA15; source: recombinant monoclonal IgG, produced and purified as previously described) VH: QLQLQESGPGLVKPSETLSLTCTVSGGSISSNNYYWGWIRQPPGKGLECIGTIYYSGNTYYNPSLKSRVTISVDTSKNQFSLKLGSVTAADTAVYYCARQQWLRDAFHIWGQGTMVTVSS VL: NFMLTQPHSVSESPGKTVTISCTGSSGSIASNYVQWYQQRPGSAPTIVIYEDNQRPSGVPDRFSGSIDSSSNSASLTISGLKTEDEADYYCQSYDSNIHVVFGGGTKLTVL | 4.02 nM
V042 (antibody, V domains shown, IgG; donor BRA15; source: recombinant monoclonal IgG, produced and purified as previously described) VH: QLQLQESGPGLVKPSETLSLTCTVSGGSISSSTNYWGWIRQPPGKGLEWIGSIDYSGSTYYNPSLKSRVTMSVDTSKNQFSLKLSSVTATDTAMYYCARHVIDDSRGYYPAALDHWSQGTLVTVSS VL: EIVLTQSPATLSLSPGERATLSCRASQSVNNYLAWYQQKPGQAPRLLIYDASNRATGVPARFSGSGSGTDFTLTISSLEPEDFAVYFCQQRSNWPPMYTFGQGTKLEIK | 23.3 nM
